Measurements from patent US20250223314A1.

Target: Tocilizumab (IgG1)
Assay: SPR (Biacore), tocilizumab immobilised via EDC/NHS on CM5 chip, receptor as analyte

Kd	Substance
0.478 nM	Man9 (Pichia-produced FcγRIIIa domain 2 ligand with Mannose 9 glycosylation) (receptor)
17.6 nM	Deglycosylated D2 (Man9 deglycosylated using EndoH) (receptor)
